According to patent US8722732B2, “Oligomer-calcimimetic conjugates and related compounds” (Nektar Therapeutics, priority 2009, dated 2014):
Where two headings read alike, the source gives them in different places.

What was measured:
[1] = test system: plasma PTH (parathyroid hormone) levels; experiment: In vivo screen, PTH-lowering effects in normal rats (plasma PTH by ELISA); design: species or system rat
Method: PEG-Cinacalcet calcimmetic effects were studied in PTH (parathyroid hormone)-lowering experiments in normal rats. Male SD rats (˜350 g) were IV dosed with different compounds at 1 mg/kg or orally (“PO”) cinacalcet at 10 mg/kg. Plasma samples were collected and prepared at different timepoints (up to 72 hours) after drug administration. The plasma PTH levels were quantified by ELISA.

[2] = rat, in vivo, 1 mg/kg; for AUCall / Clearance: iv
Method: (§1) Compound (15), Compound (20), Compound (16), Compound (21), Compound (24), Compound (25), Compound (28) and Compound (29), prepared in accordance with Examples, 5, 7, 6, 8, 9, 10, 11 and 12 respectively, were separately administered intravenously to four male rats to provide a cinacalcet equivalent dose of 1 mg/kg. Parent compound cinacalcet prepared in DMSO at 1 mg/kg was separately administrated intravenously to four male rats. For these cohorts, blood was collected at the following time points: 0 (predose), 2 minutes, 10 minutes, 1 hour, 2 hours, 4 hours, 8 hours, 24 hours, 48 hours and 72 hours following administration.

[3] = Hydrolysis of compounds in pH 7.4 PBS buffer at 37° C. (HPLC); assay type: physicochemical
Method: The solution was placed into ten different HPLC vials and the HPLC vials were put into a 37° C. incubator. The samples were analyzed by HPLC at different timepoints. When hydrolysis occurred, HPLC confirmed that cinacalcet was released unaltered.

[4] = dog, in vivo
Method: (§2) Briefly, cinacalcet hydrochloride was administered orally to three male beagle dogs to provide a cinacalcet equivalent dose of 2.0 mg/kg. […] For both the cohorts, blood was collected at the following time points: 0 (predose); 10 min, 1, 2, 4, 8, 24, 48, 72, 120 and 144 h.

[5] = test system: plasma PTH (parathyroid hormone) levels; experiment: In vivo screen, rat chronic renal insufficiency (CRI) model, 5/6 nephrectomy; details: 5/6 Nx rats, 6-8 weeks post surgery
Description: The approach set forth in Example 14 is repeated except rats were surgically modified to mimic chronic renal insufficiency through the total removal of one kidney and ⅔ of the other kidney (a 5/6 nephrectomy or “5/6Nx”). […] Parathyroid hormone levels in normal rats are around 100 pg/ml and in 5/6 Nx rats they increase to 500-1000 pg/ml.

CYP2D6 = CYP2D6 (Homo sapiens, UniProt P10635); details: background statement; cited from earlier work
CYP2D6, sequence (P10635 whole entry): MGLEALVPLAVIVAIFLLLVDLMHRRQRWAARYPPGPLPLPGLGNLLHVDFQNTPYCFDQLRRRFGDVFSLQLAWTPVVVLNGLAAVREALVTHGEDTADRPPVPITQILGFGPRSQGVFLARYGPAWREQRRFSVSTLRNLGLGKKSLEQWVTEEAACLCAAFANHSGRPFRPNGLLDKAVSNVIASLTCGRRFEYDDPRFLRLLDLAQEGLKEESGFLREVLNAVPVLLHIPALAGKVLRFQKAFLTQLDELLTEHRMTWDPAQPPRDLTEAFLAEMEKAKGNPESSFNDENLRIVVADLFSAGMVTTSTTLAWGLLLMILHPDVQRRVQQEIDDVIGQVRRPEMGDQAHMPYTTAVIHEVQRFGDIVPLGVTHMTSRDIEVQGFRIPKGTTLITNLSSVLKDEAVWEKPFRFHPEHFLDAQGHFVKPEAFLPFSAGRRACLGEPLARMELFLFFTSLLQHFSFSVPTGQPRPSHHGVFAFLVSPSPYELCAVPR

[6] = Hydrolysis / pharmacokinetics in an in vivo dog study; details: male, beagle, plasma, po, 10 mg/kg
Method: as §2

[7] = Hydrolysis / pharmacokinetics in an in vivo rat study (plasma concentration-time profiles); details: male, po, 10 mg/kg
Method: as §1

Row | Molecule | PTH-lowering effect (in words) ([1]; IV, 1 mg/kg) | t1/2 in PBS [3] [days] | time at which animal PTH levels return to baseline ([1]; IV, 1 mg/kg) [h] | cinacalcet release after intravenous administration (in words) [2] | time for which release of cinacalcet continues following intravenous administration [2] [h] | other results
1 | Four-arm-PEG20k-L-leucine-acyloxymethyl-carbamate-cinacalcet [Compound (21)] | significant PTH-lowering effects | – | – | – | – | AUCall [2]: 5730 ng·min/mL; Clearance [2]: 206 mL/min/kg
2 | mPEG10k-D-valine-acyloxymethyl-carbamate-cinacalcet [Compound (28)] | variable PTH-lowering effects | ~8.67 | ~24 | relatively significant amounts of cinacalcet release | 8 to 12 | –
3 | mPEG10k-L-valine-acyloxymethyl-carbamate-cinacalcet [Compound (24)] | variable PTH-lowering effects | ~13.2 | ~24 | relatively significant amounts of cinacalcet release | 8 to 12 | –
4 | Four-arm-PEG30k-L-leucine-acyloxymethyl-carbamate-cinacalcet [Compound (31)] | – | – | – | – | – | Cmax versus cinacalcet (in words) [4]: blunted; half-life versus cinacalcet (in words) [4]: increased; time up to which therapeutically relevant levels of cinacalcet are released ([4]; iv): up to 72 hours; AUCall ([4]; iv, 1 mg/kg): 176 ng·h/mL; Clearance ([4]; iv, 1 mg/kg): 2600 mL/h/kg; T1/2 ([4]; iv, 1 mg/kg): 25.9 min; Vz(F) ([4]; iv, 1 mg/kg): 97200 mL/kg
5 | mPEG10k-L-isoleucine-acyloxymethyl-carbamate-cinacalcet [(36)] | – | ~19.6 | – | – | – | –
6 | Four-arm-PEG20k-glycine-amide-cinacalcet [Compound (16)] | – | – | – | – | – | reduction of PTH levels (in words) [5]: PTH levels are not reduced as significantly as Compounds (25), (28), and (29)
7 | Four-arm-PEG20k-D-valine-acyloxymethyl-carbamate-cinacalcet [Compound (29)] | variable PTH-lowering effects | – | ~24 | relatively significant amounts of cinacalcet release | 8 to 12 | –
8 | mPEG10k-L-leucine-acyloxymethyl-carbamate-cinacalcet [Compound (20)] | significant PTH-lowering effects | ~5.25 | – | – | – | PTH-lowering effect lasts up to ([1]; IV, 1 mg/kg): 24 to 48 h; AUCall [2]: 11200 ng·min/mL; Clearance [2]: 100 mL/min/kg
9 | C[C@@H](NCCCc1cccc(C(F)(F)F)c1)c1cccc2ccccc12 [cinacalcet] | – | – | – | – | – | PTH-lowering effect lasts up to ([1]; PO, 10 mg/kg): ~12 h; CYP2D6 inhibition (CYP2D6): inhibitor of CYP2D6; AUC [6]: 17.8 ng·h/mL; Cmax [6]: 6.01 ng/mL; Vd/F [6]: 294 L/kg; half-life [6]: 1.77 h; AUC [7]: 690 ng·h/mL; Cmax [7]: 97.4 ng/mL; half-life [7]: 179 min
10 | Four-arm-PEG20k-L-valine-acyloxymethyl-carbamate-cinacalcet [Compound (25)] | variable PTH-lowering effects | – | ~24 | relatively significant amounts of cinacalcet release | 8 to 12 | –
